Laboratory results reported in PMC4497409.

Molecular target: T1, Norrin (Norrie Disease Protein), recombinant wild-type after removal of the SUMO fusion tag (human), Q00604
T1 chain: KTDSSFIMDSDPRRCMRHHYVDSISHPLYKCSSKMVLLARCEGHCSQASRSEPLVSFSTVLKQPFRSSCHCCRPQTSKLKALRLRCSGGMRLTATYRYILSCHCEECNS
Assay: SAXS; Norrin at 0.75 and 1.26 mg/ml in 10 mM HEPES, pH 7.5, 0.7 M NaCl, 0.5% CHAPS; 293 K
Details: remark: other sources report otherwise

B1: Norrin (Norrie Disease Protein), recombinant wild-type after removal of the SUMO fusion tag, Q00604 25-133 (ligand)
chain: KTDSSFIMDSDPRRCMRHHYVDSISHPLYKCSSKMVLLARCEGHCSQASRSEPLVSFSTVLKQPFRSSCHCCRPQTSKLKALRLRCSGGMRLTATYRYILSCHCEECNS
stoichiometry N: 2
